{"source": "paper PMC7925540", "target": "Vlp15/16 of B. miyamotoi HT31 (B. miyamotoi HT31)", "assay": "ELISA; Vlp15/16 (5 µg/ml) immobilised, increasing amounts of plasminogen (0 to 20 µM); non-linear regression, one-site specific binding model"}
{"substance": "Human glu-plasminogen (natural protein)", "values": [{"measurement": "Kd", "result": 354, "unit": "nM"}]}
